Results on seven molecules are retold here after paper PMC3916239, “Distinct DNA Binding Sites Contribute to the TCF Transcriptional Switch in C. elegans and Drosophila”.

Series [1] addresses T1, POP-1 (Caenorhabditis elegans, UniProt Q10666 1-438).
T1 sequence: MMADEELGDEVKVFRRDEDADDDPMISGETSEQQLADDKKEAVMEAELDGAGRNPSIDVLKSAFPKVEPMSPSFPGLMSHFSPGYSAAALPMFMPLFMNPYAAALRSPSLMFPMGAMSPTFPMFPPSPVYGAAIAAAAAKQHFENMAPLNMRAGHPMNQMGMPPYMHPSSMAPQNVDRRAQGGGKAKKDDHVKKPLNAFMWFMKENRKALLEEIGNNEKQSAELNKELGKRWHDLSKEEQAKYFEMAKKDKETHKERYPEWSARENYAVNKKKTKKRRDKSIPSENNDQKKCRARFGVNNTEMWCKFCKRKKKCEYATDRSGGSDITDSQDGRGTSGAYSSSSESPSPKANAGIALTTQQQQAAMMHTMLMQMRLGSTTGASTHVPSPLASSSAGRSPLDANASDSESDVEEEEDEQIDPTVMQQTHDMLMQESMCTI
In words: EMSA; 10 mM Tris-HCl pH 7.5, 50 mM KCl, 1 mM DTT, 5 mM MgCl2, 0.05% NP-40, 50 ug/ml poly(dI-dC), glycerol; 20 ul; 5 min on ice then 25 min room temperature; 6% native gel. The settings on record: protein: recombinant, tags: 6xHis. (In general: Mobility shift assays separate free from complexed probe on a gel.)

The target of series [2] is T1, POP-1. In words: competition; no competition at 200-fold excess; 10 mM Tris-HCl pH 7.5, 50 mM KCl, 1 mM DTT, 5 mM MgCl2, 0.05% NP-40, 50 ug/ml poly(dI-dC), glycerol; 20 ul; 5 min on ice then 25 min room temperature; 6% native gel. The conditions noted are these: protein: recombinant; tags: 6xHis.

B1: Y66D12A.9 probe (dsDNA)
DNA 1: TTGGCGCCGAGCACATATTTCCCATCGGAAGCTTTGAAATAGTCGAGCCCGCGGCCACTT
DNA 2: AAGTGGCCGCGGGCTCGACTATTTCAAAGCTTCCGATGGGAAATATGTGCTCGGCGCCAA
Consider B1, for which, in the series with POP-1 [1] (label: biotin), the binding result is recorded as “no binding”.

B2: R05G6.5 probe (dsDNA)
DNA 1: CGGTCGCCGCGCCAATGTGCTTGCCTTTGAACTCTCAATTTGCTGTTGTGGCGTGAT
DNA 2: ATCACGCCACAACAGCAAATTGAGAGTTCAAAGGCAAGCACATTGGCGCGGCGACCG
On to B2, for which, in the series with POP-1 [1] (label: biotin), the binding result was “no binding”.

B3: ceh-22b WRE WT probe 69 bp (dsDNA)
DNA 1: TACGAGAAGCGGCGATTCAAGAGTTTCAAATAACTTCTCCACCGCCTTTTGAAGTTGCCGAAAATAGTT
DNA 2: AACTATTTTCGGCAACTTCAAAAGGCGGTGGAGAAGTTATTTGAAACTCTTGAATCGCCGCTTCTCGTA
In the case of B3, the binding result with POP-1 [1] (label: biotin (labeled probe)) is “binds”.

B4: K08D12.3 long WT probe (dsDNA)
DNA 1: CTGGCACGCGGCCAACATTCGATTTTGGGACGATCGACACGTTCTGGCCACATTTTCTTTGATTTTTTCTGATTTCGCCGACTTTTTTC
DNA 2: GAAAAAAGTCGGCGAAATCAGAAAAAATCAAAGAAAATGTGGCCAGAACGTGTCGATCGTCCCAAAATCGAATGTTGGCCGCGTGCCAG
Regarding B4, the binding result in the series with POP-1 [1] (label: biotin (labeled probe)) is “binds”.

B5: K08D12.3 Helper3 mutant (dsDNA)
DNA 1: CTGGCACGCGGCCAACATTCGATTTTGGGACGATCGACACGTTCTGGCCACATTTTCTTTGATTTTTTCTGATTTCTAATCAGTTTTTC
DNA 2: GAAAAACTGATTAGAAATCAGAAAAAATCAAAGAAAATGTGGCCAGAACGTGTCGATCGTCCCAAAATCGAATGTTGGCCGCGTGCCAG
Regarding B5, the binding result with POP-1 [2] is on record as “no binding”.

B6: K08D12.3 HMG mutant (dsDNA)
DNA 1: CTGGCACGCGGCCAACATTCGATTTTGGGACGATCGACACGTTCTGGCCACATTTTCTGTGCGTTTTTCTGATTTCGCCGACTTTTTTC
DNA 2: GAAAAAAGTCGGCGAAATCAGAAAAACGCACAGAAAATGTGGCCAGAACGTGTCGATCGTCCCAAAATCGAATGTTGGCCGCGTGCCAG
Regarding B6, in the series with POP-1 [2], the binding result is “no binding”.

B7: psa-3 WRE WT probe 47 bp (dsDNA)
DNA 1: ACCGTTATGGCCGTGGAGGCTCTTTTGATGTGCAGCCGACAAGTACG
DNA 2: CGTACTTGTCGGCTGCACATCAAAAGAGCCTCCACGGCCATAACGGT
As to B7, the binding result with POP-1 [1] (label: biotin (labeled probe)) was “binds”.
